The labels stand for the following.
B1: Chorion-specific transcription factor GCMb (Homo sapiens), O75603 (parent)
chain: MPAAAVQEAVGVCSYGMQLSWDINDPQMPQELALFDQFREWPDGYVRFIYSSDEKKAQRHLSGWAMRNTNNHNGHILKKSCLGVVVCTQACTLPDGSRLQLRPAICDKARLKQQKKACPNCHSALELIPCRGHSGYPVTNFWRLDGNAIFFQAKGVHDHPRPESKSETEARRSAIKRQMASFYQPQKKRIRESEAEENQDSSGHFSNIPPLENPEDFDIVTETSFPIPGQPCPSFPKSDVYKATCDLATFQGDKMPPFQKYSSPRIYLPRPPCSYELANPGYTNSSPYPTLYKDSTSIPNDTDWVHLNTLQCNVNSYSSYERSFDFTNKQHGWKPALGKPSLVERTNHGQFQAMATRPYYNPELPCRYLTTPPPGAPALQTVITTTTKVSYQAYQPPAMKYSDSVREVKSLSSCNYAPEDTGMSVYPEPWGPPVTVTRAASPSGPPPMKIAGDCRAIRPTVAIPHEPVSSRTDEAETWDVCLSGLGSAVSYSDRVGPFFTYNNEDF
B2: EF-hand domain-containing family member C2 (Homo sapiens), Q5JST6 (parent)
chain: MALPLLPGNSFNRNVGKEKFHKSQHWGFCNNVMMLVSDEKPGIGGEPLLGQKIKPKCSIYPKGDGSDVPSWVAFDKQVLSFDAYLEEEVLDKSQTNYRIRYYKIYFYPEDDTIQVNEPEVKNSGLLQGTSIRRHRITLPPPDEDQFYTVYHFNVGTEVVFYGRTFKIYDCDAFTRNFLRKIGVKVNPPVQCPEDPYMKIRREVVEHVEPLRPYESLDTLKQFLQYHGKILCFFCLWDDSVSMFGDRRELILHYFLCDDTIEIKELLPHSSGRDALKMFLRRSKLPKNCPPRVYQPGQITDRAVLNSYGDFIKNQADGYLFDRYKLGKVDQEFYKDSDLSLGVTINVWGRKVLLYDCDEFTKSYYKSKYGIENFTSVSCKPPSPPPKIERKFPPYNGFGSEEDSLRNCIDLKPTPHRRNFKKFMEKDSYGSKSNILRFFAKLVTDKCVDLDRMFVISYYLGDDTISVFEPIERNSGIAGGMFLKRSRVKKPGQEVFKSELSEYIKAEELYIGVTVNVNGYLFRLLNADEYTLNYMEQNTDKYPFSNLKLALQKLKQEEGKSRELKQVFKAADSKHTNMVDYNTFRDILMSLTVGNLAEQEFVTIARHYRVPEGTCSDMDFLIALAHEKFKKNMFENFDTFIYSCVYEDREKKNVLPTKDIKRLCKSSRLPLSDDLLESLLSRFEDSEKQIDYKSFFSALNWRKNPVPELQPASYLKERCEDVWLGMPSPIPAKYIDYWTFLKDAFGLEEE
partner: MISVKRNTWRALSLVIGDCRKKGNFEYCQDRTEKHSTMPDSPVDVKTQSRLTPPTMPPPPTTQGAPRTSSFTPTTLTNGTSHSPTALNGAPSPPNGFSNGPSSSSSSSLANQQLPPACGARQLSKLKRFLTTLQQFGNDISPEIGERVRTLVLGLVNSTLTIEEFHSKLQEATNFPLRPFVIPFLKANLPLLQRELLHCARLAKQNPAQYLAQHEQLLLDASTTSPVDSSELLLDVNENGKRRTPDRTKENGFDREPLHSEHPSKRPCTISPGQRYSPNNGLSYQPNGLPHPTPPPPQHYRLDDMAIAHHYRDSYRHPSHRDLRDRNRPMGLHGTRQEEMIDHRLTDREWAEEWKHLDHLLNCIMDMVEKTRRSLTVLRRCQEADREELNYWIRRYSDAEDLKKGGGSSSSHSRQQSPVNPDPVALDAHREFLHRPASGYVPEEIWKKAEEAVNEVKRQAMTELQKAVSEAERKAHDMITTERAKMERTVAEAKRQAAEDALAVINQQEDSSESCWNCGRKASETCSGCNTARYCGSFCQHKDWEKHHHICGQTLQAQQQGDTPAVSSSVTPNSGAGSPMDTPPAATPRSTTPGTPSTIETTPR
B3: MYG1 exonuclease (Homo sapiens), Q9HB07 (parent)
chain: MGHRFLRGLLTLLLPPPPLYTRHRMLGPESVPPPKRSRSKLMAPPRIGTHNGTFHCDEALACALLRLLPEYRDAEIVRTRDPEKLASCDIVVDVGGEYDPRRHRYDHHQRSFTETMSSLSPGKPWQTKLSSAGLIYLHFGHKLLAQLLGTSEEDSMVGTLYDKMYENFVEEVDAVDNGISQWAEGEPRYALTTTLSARVARLNPTWNHPDQDTEAGFKRAMDLVQEEFLQRLDFYQHSWLPARALVEEALAQRFQVDPSGEIVELAKGACPWKEHLYHLESGLSPPVAIFFVIYTDQAGQWRIQCVPKEPHSFQSRLPLPEPWRGLRDEALDQVSGIPGCIFVHASGFIGGHRTREGALSMARATLAQRSYLPQIS
B4: Neurogenin-3 (Homo sapiens), Q9Y4Z2 (parent)
chain: MTPQPSGAPTVQVTRETERSFPRASEDEVTCPTSAPPSPTRTRGNCAEAEEGGCRGAPRKLRARRGGRSRPKSELALSKQRRSRRKKANDRERNRMHNLNSALDALRGVLPTFPDDAKLTKIETLRFAHNYIWALTQTLRIADHSLYALEPPAPHCGELGSPGGSPGDWGSLYSPVSQAGSLSPAASLEERPGLLGATFSACLSPGSLAFSDFL
B5: Zinc finger protein 774 (Homo sapiens), Q6NX45 (parent)
chain: MWLGTSGKSGLPGHCLENPLQECHPAQLEEWALKGISRPSVISQPEQKEEPWVLPLQNFEARKIPRESHTDCEHQVAKLNQDNSETAEQCGTSSERTNKDLSHTLSWGGNWEQGLELEGQHGTLPGEGQLESFSQERDLNKLLDGYVGEKPMCAECGKSFNQSSYLIRHLRTHTGERPYTCIECGKGFKQSSDLVTHRRTHTGEKPYQCKGCEKKFSDSSTLIKHQRTHTGERPYECPECGKTFGRKPHLIMHQRTHTGEKPYACLECHKSFSRSSNFITHQRTHTGVKPYRCNDCGESFSQSSDLIKHQRTHTGERPFKCPECGKGFRDSSHFVAHMSTHSGERPFSCPDCHKSFSQSSHLVTHQRTHTGERPFKCENCGKGFADSSALIKHQRIHTGERPYKCGECGKSFNQSSHFITHQRIHLGDRPYRCPECGKTFNQRSHFLTHQRTHTGEKPFHCSKCNKSFRQKAHLLCHQNTHLI

In the first assay the parent is B1. The settings on record: with crx_human CRX.
For the variant MPAAAVQEAVGVCSYGMQLSWDINDPQMPQELALFDQFREWPDGYVRFIYSSNEKKAQRHLSGWAMRNTNNHNGHILKKSCLGVVVCTQACTLPDGSRLQLRPAICDKARLKQQKKACPNCHSALELIPCRGHSGYPVTNFWRLDGNAIFFQAKGVHDHPRPESKSETEARRSAIKRQMASFYQPQKKRIRESEAEENQDSSGHFSNIPPLENPEDFDIVTETSFPIPGQPCPSFPKSDVYKATCDLATFQGDKMPPFQKYSSPRIYLPRPPCSYELANPGYTNSSPYPTLYKDSTSIPNDTDWVHLNTLQCNVNSYSSYERSFDFTNKQHGWKPALGKPSLVERTNHGQFQAMATRPYYNPELPCRYLTTPPPGAPALQTVITTTTKVSYQAYQPPAMKYSDSVREVKSLSSCNYAPEDTGMSVYPEPWGPPVTVTRAASPSGPPPMKIAGDCRAIRPTVAIPHEPVSSRTDEAETWDVCLSGLGSAVSYSDRVGPFFTYNNEDF [D53N], the “effect of a mutation on the interaction” value is given as “with no effect”.

The variants in another assay derive from B1. The settings on record: with fhl3_human FHL3, Q13643.
Chain of fhl3_human FHL3, Q13643 (Q13643 whole entry): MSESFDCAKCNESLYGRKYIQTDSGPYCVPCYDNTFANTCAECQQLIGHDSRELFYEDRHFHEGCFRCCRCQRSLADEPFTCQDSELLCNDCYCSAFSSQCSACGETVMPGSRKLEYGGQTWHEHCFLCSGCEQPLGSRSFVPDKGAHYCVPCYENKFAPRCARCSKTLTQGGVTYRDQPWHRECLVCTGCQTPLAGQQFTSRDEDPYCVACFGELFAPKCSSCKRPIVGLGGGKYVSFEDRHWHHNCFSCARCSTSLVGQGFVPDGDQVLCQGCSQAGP
Take MPAAAVQEAVGVCSYGMQLSWDINDPQMPQELALFDQFREWPDGYVRFIYSSNEKKAQRHLSGWAMRNTNNHNGHILKKSCLGVVVCTQACTLPDGSRLQLRPAICDKARLKQQKKACPNCHSALELIPCRGHSGYPVTNFWRLDGNAIFFQAKGVHDHPRPESKSETEARRSAIKRQMASFYQPQKKRIRESEAEENQDSSGHFSNIPPLENPEDFDIVTETSFPIPGQPCPSFPKSDVYKATCDLATFQGDKMPPFQKYSSPRIYLPRPPCSYELANPGYTNSSPYPTLYKDSTSIPNDTDWVHLNTLQCNVNSYSSYERSFDFTNKQHGWKPALGKPSLVERTNHGQFQAMATRPYYNPELPCRYLTTPPPGAPALQTVITTTTKVSYQAYQPPAMKYSDSVREVKSLSSCNYAPEDTGMSVYPEPWGPPVTVTRAASPSGPPPMKIAGDCRAIRPTVAIPHEPVSSRTDEAETWDVCLSGLGSAVSYSDRVGPFFTYNNEDF [D53N]: the “effect of a mutation on the interaction” value is given as “with no effect”.

Variants of B1 are the subject of another assay. As to conditions: with rbpms_human RBPMS.
MPAAAVQEAVGVCSYGMQLSWDINDPQMPQELALFDQFREWPDGYVRFIYSSNEKKAQRHLSGWAMRNTNNHNGHILKKSCLGVVVCTQACTLPDGSRLQLRPAICDKARLKQQKKACPNCHSALELIPCRGHSGYPVTNFWRLDGNAIFFQAKGVHDHPRPESKSETEARRSAIKRQMASFYQPQKKRIRESEAEENQDSSGHFSNIPPLENPEDFDIVTETSFPIPGQPCPSFPKSDVYKATCDLATFQGDKMPPFQKYSSPRIYLPRPPCSYELANPGYTNSSPYPTLYKDSTSIPNDTDWVHLNTLQCNVNSYSSYERSFDFTNKQHGWKPALGKPSLVERTNHGQFQAMATRPYYNPELPCRYLTTPPPGAPALQTVITTTTKVSYQAYQPPAMKYSDSVREVKSLSSCNYAPEDTGMSVYPEPWGPPVTVTRAASPSGPPPMKIAGDCRAIRPTVAIPHEPVSSRTDEAETWDVCLSGLGSAVSYSDRVGPFFTYNNEDF [D53N]: the “effect of a mutation on the interaction” value is on record as “with no effect”.

The variants in the next assay derive from B2. The settings on record: with mtg8_human RUNX1T1, Q06455.
Take N31S: the “effect of a mutation on the interaction” value is on record as “disrupting interaction strength”.

Another assay covers variants of B2. As to conditions: with mtg8_human RUNX1T1, Q06455. The source holds these as a separate data set.
V376I: the “effect of a mutation on the interaction” value is “with no effect”.

Another assay covers variants of B3. The settings on record: with atrap_human AGTRAP.
Regarding MGHRFLRGLLTLLLPPPPLYTRHRMLGPESVPPPKRSRSKLMAPPRIGTHNGTFHCDEALACALLRLLPEYRDAEIVRTRDPEKLASCDIVVDVGGEYDPRRHRYDHHQRSFTETMSSLSPGKPWQTKLSSAGLIYLHFGHKLLAQLLGTSEEDSMVGTLYDKMYENFVEEVDAVDNGISQWAEGEPQYALTTTLSARVARLNPTWNHPDQDTEAGFKRAMDLVQEEFLQRLDFYQHSWLPARALVEEALAQRFQVDPSGEIVELAKGACPWKEHLYHLESGLSPPVAIFFVIYTDQAGQWRIQCVPKEPHSFQSRLPLPEPWRGLRDEALDQVSGIPGCIFVHASGFIGGHRTREGALSMARATLAQRSYLPQIS [R188Q], the “effect of a mutation on the interaction” value was “with no effect”.

Take MGHRFLRGLLTLLLPPPPLYTRHRMLGPESVPPPKRSRSKLMAPPRIGTHNGTFHCDEALACALLRLLPEYRDAEIVRTRDPEKLASCDIVVDVGGEYDPRRHRYDHHQRSFTETMSSLSPGKPWQTKLSSAGLIYLHFGHKLLAQLLGTSEEDSMVGTLYDKMYENFVEEVDAVDNGISQWAEGEPRYALTTTLSARVARLNPTWNHPDQDTEAGFKRAMDLVQEEFLQRLDFYQHSWLPAQALVEEALAQRFQVDPSGEIVELAKGACPWKEHLYHLESGLSPPVAIFFVIYTDQAGQWRIQCVPKEPHSFQSRLPLPEPWRGLRDEALDQVSGIPGCIFVHASGFIGGHRTREGALSMARATLAQRSYLPQIS [R243Q]: the “effect of a mutation on the interaction” value is “with no effect”.

A further assay covers variants of B4. As to conditions: with htf4_human TCF12, Q99081.
Chain of htf4_human TCF12, Q99081 (Q99081 whole entry): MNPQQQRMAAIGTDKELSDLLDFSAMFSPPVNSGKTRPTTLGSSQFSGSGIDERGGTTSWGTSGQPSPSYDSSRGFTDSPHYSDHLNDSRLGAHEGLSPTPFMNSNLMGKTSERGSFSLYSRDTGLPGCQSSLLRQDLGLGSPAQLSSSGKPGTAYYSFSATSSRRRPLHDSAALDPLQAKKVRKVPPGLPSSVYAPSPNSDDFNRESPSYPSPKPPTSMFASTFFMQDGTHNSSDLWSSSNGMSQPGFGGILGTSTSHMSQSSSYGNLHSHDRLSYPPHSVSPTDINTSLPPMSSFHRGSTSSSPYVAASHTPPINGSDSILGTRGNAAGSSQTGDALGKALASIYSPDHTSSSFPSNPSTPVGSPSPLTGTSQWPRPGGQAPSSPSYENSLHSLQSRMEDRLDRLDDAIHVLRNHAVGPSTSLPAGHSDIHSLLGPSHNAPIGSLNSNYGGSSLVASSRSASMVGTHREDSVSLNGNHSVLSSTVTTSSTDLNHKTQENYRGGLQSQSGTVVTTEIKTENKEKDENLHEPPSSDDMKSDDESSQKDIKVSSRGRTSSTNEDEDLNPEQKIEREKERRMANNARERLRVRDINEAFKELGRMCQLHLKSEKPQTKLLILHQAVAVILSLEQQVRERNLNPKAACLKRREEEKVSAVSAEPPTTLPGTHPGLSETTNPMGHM
Regarding MTPQPSGAPTVQVTRETERSFPRASEDEVTCPTSAPPSPTRTRGNCAEAEEGGCRGAPRKLRARRGGRSRPKSELALSKQRRSRRKKANDRERNRMHNLNSALDALRGVLPTFPDDAKLTKIETLRFAHNYIWALTQTLRIADHSLYALEPPAPHCGELGSPGGSPGDWGSLYSPVSQAGSLSPAASLEERPGLLGATSSACLSPGSLAFSDFL [F199S], the “effect of a mutation on the interaction” value is reported as “with no effect”.

In the next assay the parent is B5. As to conditions: with ldoc1_human LDOC1, O95751.
Chain of ldoc1_human LDOC1, O95751 (O95751 whole entry): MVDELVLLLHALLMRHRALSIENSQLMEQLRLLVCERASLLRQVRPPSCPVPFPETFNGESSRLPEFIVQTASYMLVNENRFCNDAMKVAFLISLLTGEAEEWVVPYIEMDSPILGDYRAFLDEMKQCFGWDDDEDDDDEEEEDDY
MWLGTSGKSGLPGHCLENPLQECHPAQLEEWALKGISRPSVISQPEQKEEPWVLPLQNFEARKIPRESHTDCEHQVAKLNQDNSETAEQCGTSSERTNKDLSHTLSWGGNWEQGLELEGQHGTLPGEGQLESFSQERDLNKLLDGYVGEKPMCAECGKSFNQSSYLIRHLRTHTGERPYTCIACGKGFKQSSDLVTHRRTHTGEKPYQCKGCEKKFSDSSTLIKHQRTHTGERPYECPECGKTFGRKPHLIMHQRTHTGEKPYACLECHKSFSRSSNFITHQRTHTGVKPYRCNDCGESFSQSSDLIKHQRTHTGERPFKCPECGKGFRDSSHFVAHMSTHSGERPFSCPDCHKSFSQSSHLVTHQRTHTGERPFKCENCGKGFADSSALIKHQRIHTGERPYKCGECGKSFNQSSHFITHQRIHLGDRPYRCPECGKTFNQRSHFLTHQRTHTGEKPFHCSKCNKSFRQKAHLLCHQNTHLI [E183A]: the “effect of a mutation on the interaction” value is “with no effect”.

MWLGTSGKSGLPGHCLENPLQECHPAQLEEWALKGISRPSVISQPEQKEEPWVLPLQNFEARKIPRESHTDCEHQVAKLNQDNSETAEQCGTSSERTNKDLSHTLSWGGNWEQGLELEGQHGTLPGEGQLESFSQERDLNKLLDGYIGEKPMCAECGKSFNQSSYLIRHLRTHTGERPYTCIECGKGFKQSSDLVTHRRTHTGEKPYQCKGCEKKFSDSSTLIKHQRTHTGERPYECPECGKTFGRKPHLIMHQRTHTGEKPYACLECHKSFSRSSNFITHQRTHTGVKPYRCNDCGESFSQSSDLIKHQRTHTGERPFKCPECGKGFRDSSHFVAHMSTHSGERPFSCPDCHKSFSQSSHLVTHQRTHTGERPFKCENCGKGFADSSALIKHQRIHTGERPYKCGECGKSFNQSSHFITHQRIHLGDRPYRCPECGKTFNQRSHFLTHQRTHTGEKPFHCSKCNKSFRQKAHLLCHQNTHLI [V147I]: the “effect of a mutation on the interaction” value was “with no effect”.

These data come from IntAct's records for PubMed 31515488.
